The record followed here is paper PMC3461476, “Functional expression of a penicillin acylase from the extreme thermophile Thermus thermophilus HB27 in Escherichia coli” (Microbial Cell Factories, 2012).

One may read the Km as the substrate concentration at which the rate is half of its maximum. Broadly, the kcat is the maximal rate divided by the concentration of active sites. For orientation: kcat/Km means the turnover number divided by the Michaelis constant.

Test in all cases: initial rates of hydrolysis, fluorescamine detection of primary amine product
One data set addresses T1, TthPAC (Thermus thermophilus, UniProt Q72G76, DEL247-255).
T1 construct: gene TT_C1972; One gene: precursor without its first 32 residues (membrane anchor), 2223 bp insert in pET28a, His6-tag (20 aa) at N-terminus of alpha subunit kept
In kind it is biochemical. The conditions noted are these: 20 mM MES pH 5.5, 65 °C; kcat unit taken from kcat/Km in mM^-1.seg^-1. The source says: (§1) initial rates of hydrolysis, fluorescamine detection of primary amine product on TthPAC

Substrate in data set [1]: CCCCCC(=O)N[C@@H]1C(=O)N2[C@@H]1SC(C)(C)[C@@H]2C(=O)O
In kind it is biochemical, Thermus thermophilus. The conditions noted are these: 20 mM MES pH 5.5, 65 °C, kcat unit taken from kcat/Km in mM^-1.seg^-1.
Source text: as §1

Substrate in data set [2]: CC/C=C/CC(=O)N[C@@H]1C(=O)N2[C@@H]1SC(C)(C)[C@@H]2C(=O)O
The data set is classed as biochemical, Thermus thermophilus. The conditions noted are these: 20 mM MES pH 5.5, 65 °C, kcat unit taken from kcat/Km in mM^-1.seg^-1.
Source text: as §1

Substrate in data set [3]: CCCCCCCC(=O)N[C@@H]1C(=O)N2[C@@H]1SC(C)(C)[C@@H]2C(=O)O
The data set is classed as biochemical, Thermus thermophilus. The conditions noted are these: 20 mM MES pH 5.5, 65 °C, kcat unit taken from kcat/Km in mM^-1.seg^-1.
Source text: as §1

Substrate in data set [4]: CC1(C)S[C@@H]2[C@H](NC(=O)COc3ccccc3)C(=O)N2[C@H]1C(=O)O
In kind it is biochemical, Thermus thermophilus. To be noted: 20 mM MES pH 5.5, 65 °C, kcat unit taken from kcat/Km in mM^-1.seg^-1.
Source text: as §1

On to `CC1(C)S[C@@H]2[C@H](NC(=O)Cc3ccccc3)C(=O)N2[C@H]1C(=O)O` [Penicillin G], for which the “K m (mM)” value at TthPAC is recorded as “~ Approx. 2.90 mM”.

B1: TthPAC (Thermus thermophilus HB27; DEL247-255) (protein)
chain: LYLRASLPQGEGRIALEGLSAPVEVVRDGKGVVRIRAATLKDLFFAQGFVHAQERLWQMEFQRRVGQGRLSEILGEATLPQDRFLRTWGFYRAARAAYGKLYPEEKEAVDAYAAGVNAFLASGAPLPPEFRLLGFRPEPWTGPDVLVWAKMMSYDLSGNWEEELKRHRLLARGVSPKRLLELKPPYPEDAPTVLRAEDLKLPLKREEAPSALLRSNNWVVAGSRTETGKPFLANDPHLALQAPSLWFLMALEAPGLRAIGATLPGLPGVVIGRNERIAWGVTNVGADVEDLYLLEEVEGRGYRYKGRVVPYGVREEVIRVKGGREEVLKVRETVYGPVITDALEDPPKTPMALRWVSLDEEDHILMAFLGVNRAGNWEEFKKALLPYSAPSQNFVYADVEGNIGYIAPGKFPVRKEGHTGMVPVPGNGEWDWLGYRRPEEWPQAFNPARGYLVTANHKVTPKGFPYALTYDWAEPYRAERIEELLLAKEKLSLEDMKAIQQDQKSLLYRDFRPVLELLTPLSEGARAWRDRLLAWDGTMAPGSEEALVFALWYTELTRLPQREVGEAYWDEPRYLLKALKEGDKNCDQPETEYRESCLDYAALALERALDRKEALGARAWGEVHRARFPHAVLTHTPLKRLSDREVAFGGDRYTVNVGPFDPETLAMGHGPSYRQIVDLSDMEGSLFVHPMGQSGHFLSRHYADLLPLWQRGDYLPMRFGAPLGRTLLLEPLPSP
notes: One gene: precursor without its first 32 residues (membrane anchor), 2223 bp insert in pET28a, His6-tag (20 aa) at N-terminus of alpha subunit kept
In the case of B1, the Km is 0.98 ± 0.22 mM in data set [1], 0.94 ± 0.18 mM in data set [2], 0.32 ± 0.05 mM in data set [3] and 0.74 ± 0.11 mM in data set [4]. In addition, the kcat in data set [1] amounted to 1.46 ± 0.06 s⁻¹; in data set [2], 0.90 ± 0.03 s⁻¹; in data set [3], 5.16 ± 0.13 s⁻¹; in data set [4], 0.57 ± 0.01 s⁻¹. Also, the kcat/Km came out at 1490 M⁻¹ s⁻¹ in data set [1], 960 M⁻¹ s⁻¹ in data set [2], 16100 M⁻¹ s⁻¹ in data set [3] and 770 M⁻¹ s⁻¹ in data set [4].
